Experimental data published in article PMC8786284, “Serine acetyltransferase from Neisseria gonorrhoeae; structural and biochemical basis of inhibition” (Biochemical Journal, 2022).

B1: Neisseria gonorrhoeae serine acetyltransferase (enzyme, Neisseria gonorrhoeae MS11, UniProt Q5F6X0 1-272, looked up)
chain: MKKNHLNTTGFDLWHTIREETAAAAAAEPMLASFLHQTVLRHESLGSVLAYHLSSKLGSPIMDVRALFEIYQQALGSDTQISKCVEADLKAIYERDPACDEYSLPLLYFKGFHAIQAHRINHRLYLDGRKTLAYFLQNRMSEVFGVDIHPAARLGYGLMLDHATGFVAGETAVLGNNISILHGVTLGGSGKEGGDRHPKIGDGVMIGANASILGNIRIGSNAKIGAGSVVVSDVPPSITVVGVPAKPVARSLKTPSADMDQNIQFAEIDFMI
notes: 272-residue polypeptide (N-terminal domain 1-144, LbetaH domain 145-272) with an uncleaved 21-residue N-terminal histidine tag; monomer with tag 31.6 kDa; Hexamer (dimer of trimers); also called NgSAT; SAT; source: E. coli BL21 (DE3), purified (HisTrap IMAC, gel filtration); not shown: His-tag, N-terminal, kept

Assays:
[1] = biological target: T1, Serine acetyltransferase (NgSAT) (Neisseria gonorrhoeae, UniProt Q5F6X0); experiment: biochemical
T1 construct: gene NGO_1423; full-length, N-terminal His-tag, hexamer

[2] = substrate: CC(=O)SCCNC(=O)CCNC(=O)[C@H](O)C(C)(C)COP(=O)(O)OP(=O)(O)OC[C@H]1O[C@@H](n2cnc3c(N)ncnc32)[C@H](O)[C@@H]1OP(=O)(O)O; experiment: Michaelis-Menten kinetics (KM) with purified enzyme; assay type: biochemical, Neisseria gonorrhoeae
[3] = biological target: the molecule itself; experiment: SEC-SAXS; Superdex 200 5/150 in line with SAXS, co-flow; 50 mM Tris pH 8.0, 100 mM NaCl, without or with 50 µM L-cysteine; 25°C; mass from Porod volume and P(r) analysis
[4] = biological target: the molecule itself; experiment: SEC; Enrich 650 analytical gel filtration column calibrated with Gel Filtration Standards (Bio-Rad); 50 mM Tris pH 8.0, 100 mM NaCl; oligomeric state of NgSAT
[5] = substrate: N[C@@H](CO)C(=O)O; experiment: purified protein; assay type: biochemical, Neisseria gonorrhoeae; settings: active site between adjacent monomers; Asp96, Asp161, His162, Arg196, His197

Molecule	IC50 [1] [µM]	Km [2] [µM]	kcat [2] [s⁻¹]	kcat/Km [2] [M⁻¹ s⁻¹]	stoichiometry N [3] [monomers per structure]	stoichiometry N [4]	Km [5] [µM]	kcat [5] [s⁻¹]	kcat/Km [5] [M⁻¹ s⁻¹]
CC(C)(COP(=O)(O)OP(=O)(O)OC[C@H]1O[C@@H](n2cnc3c(N)ncnc32)[C@H](O)[C@@H]1OP(=O)(O)O)[C@@H](O)C(=O)NCCC(=O)NCCS [coenzyme A]	573 ± 11								
B1		149 ± 50	1180 ± 111	7.89e+06	6.1	6	1210 ± 160	1440 ± 41	1.19e+06
